Values of other authors as cited in PMC3036710.
pKd: −log10 of the molar value.

How the values were obtained:
Experiment in all cases: solid-phase binding
[1] = target: CML-bovine serum albumin (Bos taurus) (UniProt P02769)
[2] = target: S100b calgranulin (Homo sapiens) (UniProt P04271)
HMGB-1 (Homo sapiens) = HMGB-1 (Homo sapiens) (UniProt P09429)
UniProt P09429, sequence (P09429 whole entry): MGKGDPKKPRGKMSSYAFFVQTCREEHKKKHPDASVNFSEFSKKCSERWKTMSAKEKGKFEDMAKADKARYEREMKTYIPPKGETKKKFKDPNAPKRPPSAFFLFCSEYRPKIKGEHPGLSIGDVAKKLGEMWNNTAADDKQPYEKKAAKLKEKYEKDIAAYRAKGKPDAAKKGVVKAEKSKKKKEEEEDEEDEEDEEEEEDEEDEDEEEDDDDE

UniProt P02769, sequence (P02769 25-607): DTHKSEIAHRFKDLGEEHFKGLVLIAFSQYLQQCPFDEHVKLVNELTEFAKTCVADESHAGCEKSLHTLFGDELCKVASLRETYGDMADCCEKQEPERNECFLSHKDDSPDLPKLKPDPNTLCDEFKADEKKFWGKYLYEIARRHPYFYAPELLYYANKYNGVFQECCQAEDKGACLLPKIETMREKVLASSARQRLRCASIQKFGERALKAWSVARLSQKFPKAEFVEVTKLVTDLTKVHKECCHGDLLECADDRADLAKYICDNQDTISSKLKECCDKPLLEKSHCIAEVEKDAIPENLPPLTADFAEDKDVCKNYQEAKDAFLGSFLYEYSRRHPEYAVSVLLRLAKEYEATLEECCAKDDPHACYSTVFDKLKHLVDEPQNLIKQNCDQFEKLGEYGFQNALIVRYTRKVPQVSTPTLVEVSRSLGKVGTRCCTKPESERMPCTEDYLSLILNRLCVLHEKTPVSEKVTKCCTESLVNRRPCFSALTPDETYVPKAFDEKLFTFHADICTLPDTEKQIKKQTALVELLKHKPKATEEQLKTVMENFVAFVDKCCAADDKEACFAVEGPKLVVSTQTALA
UniProt P04271, sequence (P04271 2-92): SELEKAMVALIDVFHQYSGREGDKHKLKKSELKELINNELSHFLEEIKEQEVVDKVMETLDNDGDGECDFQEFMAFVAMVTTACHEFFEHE

pKd [1]: 9.37
pKd [2]: 9.35
pKd (HMGB-1 (Homo sapiens)): 9.19
Substance: RAGE (from UniProt Q15109)
